Experimental data taken from patent US20210246218A1 (LYVGEN BIOPHARMA SUZHOU, published 2021).

How the values were obtained:
Experiment in all cases: flow cytometry on CHO cells over-expressing the target
mouse CD137 on CHO cells = biological target: T1, mouse CD137 on CHO cells (mouse, UniProt P20334 24-256)
T1 construct: whole, on cells; also called murine cellular CD137
Experimental: (§1) The cells were resuspended in ice cold assay buffer at 2*10\hat{ }6/mL and transferred to 96-well V-bottom plate with 100 μL/well. […] The plate was incubated in the dark for 2 hours at 4° C. The cells were washed 3 times by centrifugation at 1000 g for 3 min and resuspended in 100 μL ice cold assay buffer containing goat F(ab′)₂ anti-human IgG-Fc (PE) or PE goat anti-mouse IgG antibody. The plate was incubated in the dark for another 1 hour at 4° C. The cells were washed 2 times by centrifugation at 1000 g for 3 min and resuspended in ice cold assay buffer containing 2% PFA and analyzed on the flow cytometer immediately.

human VISTA on CHO cells = biological target: T2, human VISTA on CHO cells (human, UniProt Q9H7M9 33-311)
T2 construct: whole, on cells
Experimental: as §1

human B7-H3 on CHO cells = biological target: T3, human B7-H3 on CHO cells (human, UniProt Q5ZPR3 29-534)
T3 construct: whole, on cells
T3 sequence (looked up): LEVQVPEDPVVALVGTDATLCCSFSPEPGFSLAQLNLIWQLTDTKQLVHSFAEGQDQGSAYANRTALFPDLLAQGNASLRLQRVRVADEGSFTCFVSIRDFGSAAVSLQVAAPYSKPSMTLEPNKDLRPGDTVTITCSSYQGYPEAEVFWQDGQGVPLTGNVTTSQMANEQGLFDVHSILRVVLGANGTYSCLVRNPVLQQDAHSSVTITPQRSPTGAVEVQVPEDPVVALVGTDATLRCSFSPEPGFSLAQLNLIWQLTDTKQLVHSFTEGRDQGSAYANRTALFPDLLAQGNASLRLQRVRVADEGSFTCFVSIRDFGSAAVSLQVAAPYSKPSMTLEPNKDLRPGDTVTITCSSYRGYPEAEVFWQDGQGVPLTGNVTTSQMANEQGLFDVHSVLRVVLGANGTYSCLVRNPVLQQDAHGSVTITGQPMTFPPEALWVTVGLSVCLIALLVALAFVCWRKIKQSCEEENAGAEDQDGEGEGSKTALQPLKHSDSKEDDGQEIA
Experimental: as §1

human GITR on CHO cells = biological target: T4, human GITR on CHO cells (human, UniProt Q9Y5U5 26-241)
T4 construct: whole, on cells
T4 sequence (looked up): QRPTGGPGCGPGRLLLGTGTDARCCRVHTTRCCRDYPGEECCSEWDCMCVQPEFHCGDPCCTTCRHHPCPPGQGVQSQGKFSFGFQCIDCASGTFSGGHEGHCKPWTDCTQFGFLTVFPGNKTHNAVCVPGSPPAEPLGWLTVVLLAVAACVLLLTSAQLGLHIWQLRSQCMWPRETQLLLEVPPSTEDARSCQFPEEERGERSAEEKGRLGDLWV
Experimental: as §1

human CD40 on CHO cells = biological target: T5, human CD40 on CHO cells (human, UniProt P25942 21-277)
T5 construct: whole, on cells
T5 sequence (P25942 21-277): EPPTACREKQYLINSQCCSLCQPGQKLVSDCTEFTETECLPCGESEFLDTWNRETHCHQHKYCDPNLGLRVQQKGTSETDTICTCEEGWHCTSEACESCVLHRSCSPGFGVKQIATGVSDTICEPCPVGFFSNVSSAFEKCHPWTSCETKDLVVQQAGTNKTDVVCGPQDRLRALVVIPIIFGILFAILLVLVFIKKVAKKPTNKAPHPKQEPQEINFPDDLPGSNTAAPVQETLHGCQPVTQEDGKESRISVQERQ
Experimental: as §1

human TIGIT on CHO cells = biological target: T6, human TIGIT on CHO cells (human, UniProt Q495A1 22-244)
T6 construct: whole, on cells
T6 sequence (looked up): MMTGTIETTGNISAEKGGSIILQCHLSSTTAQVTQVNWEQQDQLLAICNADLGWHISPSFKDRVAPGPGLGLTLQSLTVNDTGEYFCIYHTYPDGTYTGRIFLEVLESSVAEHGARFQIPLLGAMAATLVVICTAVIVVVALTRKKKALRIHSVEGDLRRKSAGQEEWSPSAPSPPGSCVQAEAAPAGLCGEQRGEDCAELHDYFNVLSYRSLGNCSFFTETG
Experimental: as §1

human CD19 on CHO cells = biological target: T7, human CD19 on CHO cells (human, UniProt P15391 20-556)
T7 construct: whole, on cells
T7 sequence (looked up): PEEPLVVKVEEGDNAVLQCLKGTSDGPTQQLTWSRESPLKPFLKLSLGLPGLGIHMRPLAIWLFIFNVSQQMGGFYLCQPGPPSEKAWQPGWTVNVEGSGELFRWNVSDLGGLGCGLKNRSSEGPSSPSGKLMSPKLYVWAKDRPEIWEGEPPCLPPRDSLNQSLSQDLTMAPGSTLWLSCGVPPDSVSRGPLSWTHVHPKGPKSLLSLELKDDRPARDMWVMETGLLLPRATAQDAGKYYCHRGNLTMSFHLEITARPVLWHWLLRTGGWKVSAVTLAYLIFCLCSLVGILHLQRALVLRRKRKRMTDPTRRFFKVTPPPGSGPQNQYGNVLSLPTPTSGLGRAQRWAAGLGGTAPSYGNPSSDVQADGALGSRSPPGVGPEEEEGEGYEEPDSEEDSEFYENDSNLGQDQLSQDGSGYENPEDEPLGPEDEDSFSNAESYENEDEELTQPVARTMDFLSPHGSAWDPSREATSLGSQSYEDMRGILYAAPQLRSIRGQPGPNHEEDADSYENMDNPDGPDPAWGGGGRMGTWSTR
Experimental: as §1

human LTBR on CHO cells = biological target: T8, human LTBR on CHO cells (human, UniProt P36941 31-435)
T8 construct: whole, on cells
T8 sequence (P36941 31-435): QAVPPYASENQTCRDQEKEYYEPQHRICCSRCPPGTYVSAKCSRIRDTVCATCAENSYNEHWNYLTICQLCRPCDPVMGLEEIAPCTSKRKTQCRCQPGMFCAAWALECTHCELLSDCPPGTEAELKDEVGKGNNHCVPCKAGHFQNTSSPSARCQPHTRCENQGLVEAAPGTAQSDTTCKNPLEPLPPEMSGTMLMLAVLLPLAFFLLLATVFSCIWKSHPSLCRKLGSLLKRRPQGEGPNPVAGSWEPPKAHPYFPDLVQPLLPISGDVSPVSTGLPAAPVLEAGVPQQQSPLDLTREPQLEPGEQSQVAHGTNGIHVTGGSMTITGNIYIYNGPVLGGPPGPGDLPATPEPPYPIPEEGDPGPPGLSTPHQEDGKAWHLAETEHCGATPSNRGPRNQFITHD
Experimental: as §1

human CD160 on CHO cells = biological target: T9, human CD160 on CHO cells (human, UniProt O95971 25-159)
T9 construct: whole, on cells
T9 sequence (looked up): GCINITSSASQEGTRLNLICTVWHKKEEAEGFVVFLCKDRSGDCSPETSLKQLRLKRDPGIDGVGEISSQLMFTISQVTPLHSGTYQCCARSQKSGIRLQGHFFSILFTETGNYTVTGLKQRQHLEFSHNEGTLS
Experimental: as §1

[1] = biological target: T10, human CD200R1 on CHO cells (human, UniProt Q8TD46 25-348)
T10 construct: whole, on cells
T10 sequence (looked up): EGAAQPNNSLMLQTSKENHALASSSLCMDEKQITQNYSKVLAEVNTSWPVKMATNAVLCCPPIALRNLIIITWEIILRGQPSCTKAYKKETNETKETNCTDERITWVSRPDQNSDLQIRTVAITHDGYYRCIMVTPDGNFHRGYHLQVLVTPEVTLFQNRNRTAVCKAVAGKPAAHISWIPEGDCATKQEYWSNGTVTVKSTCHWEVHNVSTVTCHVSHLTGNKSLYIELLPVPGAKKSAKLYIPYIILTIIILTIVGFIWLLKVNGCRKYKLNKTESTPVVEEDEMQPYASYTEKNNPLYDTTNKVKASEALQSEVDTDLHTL
Experimental: as §1

human PD-1 on CHO cells = biological target: T11, human PD-1 on CHO cells (human, UniProt Q15116 25-288)
T11 construct: whole, on cells
T11 sequence (Q15116 25-288): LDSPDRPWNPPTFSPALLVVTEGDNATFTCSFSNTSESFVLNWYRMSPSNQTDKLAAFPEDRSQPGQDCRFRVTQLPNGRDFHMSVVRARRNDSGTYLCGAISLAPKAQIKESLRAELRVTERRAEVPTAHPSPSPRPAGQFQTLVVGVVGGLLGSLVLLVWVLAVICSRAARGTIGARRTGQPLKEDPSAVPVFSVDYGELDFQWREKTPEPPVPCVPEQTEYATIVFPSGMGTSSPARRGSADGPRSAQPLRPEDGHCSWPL
Experimental: as §1

Measured: binding result

T1 sequence (P20334 24-256): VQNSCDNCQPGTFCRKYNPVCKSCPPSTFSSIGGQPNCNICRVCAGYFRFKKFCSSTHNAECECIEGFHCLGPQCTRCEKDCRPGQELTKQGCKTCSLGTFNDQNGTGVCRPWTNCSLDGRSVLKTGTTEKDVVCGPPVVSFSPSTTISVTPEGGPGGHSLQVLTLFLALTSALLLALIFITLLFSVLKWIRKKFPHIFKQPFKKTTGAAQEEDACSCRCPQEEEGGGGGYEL

B1: Clone 3712-IgG1v (IgG1v/kappa) (antibody)
heavy: QVQLVQSGAEVKKPGASVKVSCKASGYTFAGFEMHWVRQAPGQGLEWMGAIDPKTGGTDYNQKFKDRVTMTRDTSISTAYMELSRLRSDDTAVYYCARDLGYFDVWGQGTLVTVSSASTKGPSVFPLAPSSKSTSGGTAALGCLVKDYFPEPVTVSWNSGALTSGVHTFPAVLQSSGLYSLSSVVTVPSSSLGTQTYICNVNHKPSNTKVDKKVEPKSCDKTHTCPPCPAPELLGPSVFLFPPKPKDTLMISRTPEVTCVVVDVEHEDPEVKFNWYVDGVEVHNAKTKPREEQYNSTYRVVSVLTVLHQDWLNGKEYKCKVSNKALPAPIEKTISKAKGQPREPQVYTLPPSREEMTKNQVSLTCLVKGFYPSDIAVEWESNGQPENNYKTTPPVLDSDGSFFLYSKLTVDKSRWQQGNVFSCSVMHEALHNHYTQKSLSLSPGK
light: DIQMTQSPSSLSASVGDRVTITCRASQDIRSNLNWYQQKPGGAVKLLIYYTSRLHSGVPSRFSGSGSGTDYTLTISSLQPEDFATYFCQQSEKLPRTFGGGTKVEIRRTVAAPSVFIFPPSDEQLKSGTASVVCLLNNFYPREAKVQWKVDNALQSGNSQESVTEQDSKDSTYSLSSTLTLSKADYEKHKVYACEVTHQGLSSPVTKSFNRGEC
notes: copies: 2 + 2
no binding: mouse CD137 on CHO cells | human VISTA on CHO cells | human B7-H3 on CHO cells | human GITR on CHO cells | human CD40 on CHO cells | human TIGIT on CHO cells | human CD19 on CHO cells | human LTBR on CHO cells | human CD160 on CHO cells | [1] | human PD-1 on CHO cells
